From paper PMC10249625 (Biochemistry, 2023)

Tests used:
[1] = molecular target: hBIMEL (141–166) BH3 peptide (human); assay: native MS
[2] = molecular target: hBIMEL (141–166) BH3 peptide (human); assay: HDX-MS

B1: Bcl-2 chimera (1–34 Bcl-2, 35–50 Bcl-XL, 93–207 Bcl-2) with a C-terminal 6His tag (domain or fragment)
chain: MAHAGRTGYDNREIVMKYIHYKLSQRGYEWDAGDDVEENRTEAPEGTESEPVVHLTLRQAGDDFSRRYRRDFAEMSSQLHLTPFTARGRFATVVEELFRDGVNWGRIVAFFEFGGVMCVESVNREMSPLVDNIALWMTEYLNRHLHTWIQDNGGWDAFVELYGPSMR
- binding result [1]: binds

B2: Mcl-1 (172–327), untagged after thrombin cleavage of GST (domain or fragment, human (from the printed UniProt entry))
chain: GSGSDELYRQSLEIISRYLREQATGAKDTKPMGRSGATSRKALETLRRVGDGVQRNHETAFQGMLRKLDIKNEDDVKSLSRVMIHVFSDGVTNWGRIVTLISFGAFVAKHLKTINQESCIEPLAESITDVLVRTKRDWLVKQRGWDGFVEFFHVEDLEGG
- binding result [2]: binds
